This is an account of results in US12514938B2, “Fibroblast activation protein targeting peptides” (PERSPECTIVE THERAPEUTICS, INC., priority 2023, dated 2026).

Series [1] addresses T1, Human Fibroblast Activation Protein (FAP) (Homo sapiens, UniProt Q12884).
T1 sequence (Q12884 1-760): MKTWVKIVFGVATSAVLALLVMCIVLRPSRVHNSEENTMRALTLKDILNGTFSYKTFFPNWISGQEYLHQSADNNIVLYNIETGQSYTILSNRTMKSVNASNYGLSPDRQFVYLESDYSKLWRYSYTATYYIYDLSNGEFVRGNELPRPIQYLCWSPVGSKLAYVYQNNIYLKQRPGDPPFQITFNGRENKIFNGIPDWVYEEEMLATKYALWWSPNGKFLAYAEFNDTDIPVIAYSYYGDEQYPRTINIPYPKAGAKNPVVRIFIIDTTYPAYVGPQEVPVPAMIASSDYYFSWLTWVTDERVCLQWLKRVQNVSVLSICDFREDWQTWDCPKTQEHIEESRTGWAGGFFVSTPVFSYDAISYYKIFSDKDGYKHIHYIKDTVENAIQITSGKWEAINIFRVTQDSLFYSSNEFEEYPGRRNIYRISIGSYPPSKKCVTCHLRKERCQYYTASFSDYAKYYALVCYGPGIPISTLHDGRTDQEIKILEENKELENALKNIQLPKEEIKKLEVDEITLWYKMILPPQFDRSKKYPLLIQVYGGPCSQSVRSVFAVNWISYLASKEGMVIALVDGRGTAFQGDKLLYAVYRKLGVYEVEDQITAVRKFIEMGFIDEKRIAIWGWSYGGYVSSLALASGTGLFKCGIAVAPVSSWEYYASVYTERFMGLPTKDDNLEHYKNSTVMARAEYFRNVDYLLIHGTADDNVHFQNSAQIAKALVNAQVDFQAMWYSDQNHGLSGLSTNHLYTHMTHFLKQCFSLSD
The series is described as follows: Enzyme inhibition assay against human FAP (substrate Z-GP-AMC), Example 1. The series is classed as biochemical. The following applies: human FAP 5 ng/well, 50 μM Z-GP-AMC; Ki from IC50 by Cheng-Prusoff. An outline of the steps:
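FAP (5 ng/well) preincubated 10 min at RT with peptide (10^−6 to 10^−12), then 50 μM Z-GP-AMC added for 1 h at RT, protected from light. Buffer 50 mM Tris-HCl, 1 M NaCl, 1 mg/mL BSA, pH 7.5; fluorescence at ex/em 360/460. IC50 from non-linear regression, converted to Ki via Cheng-Prusoff using known substrate Km.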

Series [2] concerns hFAP-HT1080 tumors. The series is described as follows: Radiotherapeutic efficacy in human fibrosarcoma xenograft model. The series is classed as in vivo, athymic nude mice. As to conditions: 4.5-5.4 MBq over three fractionated doses, weight recorded over 70 days. The procedure:
In vivo efficacy was determined in a sarcoma model where hFAP is expressed on the membrane of cancer cell surface. HT1080 cells engineered to express hFAP. 8 days prior to treatment, athymic nude mice were inoculated with approximately 2 million cells. The mice were then randomized by tumor size and divided into two groups for control and treatment. The treated group was treated with 4.5-5.4 MBq [^212Pb]-Pb-VMT-FAP-2-59 over three fractionated doses approximately 2 weeks apart. Two mice were treated a fourth time, at day 48 and day 53 with an additional 1.9-2.1MBq. Tumor volume was measured via caliper, and weight recorded over 70 days. […] Efficacy of VMT-FAP-2-59 in athymic nude mice bearing HT1080-FAP tumors. Tumor volume and weight was monitored over 70 days. The treatment group was given 4.5-5.4MBq ^212Pb-VMT-FAP-2-59 over 3 fractionated doses. Two mice with tumor recurrence were given an additional 1.9-2.1 MBq, as indicated by dashed arrows.

*1 amine or outer side, *2 acyl side, *3 side chain or, on linkers, in order; H or OH if unused. Where a SMILES comes first, the peptide text is derived from it. Bridges are numbered along the chain shown (N, C = ends). The star is where a group is joined. X1 = NC(=O)CN1CCN(CC(=O)O)CCN(CC(=O)*)CCN(CC(=O)O)CC1; mXylylene = c1cc(C[*:1])cc(C[*:2])c1; oXylylene = c1ccc(C[*:2])c(C[*:1])c1; PEG2 = NCCOCCOCCC(=O)O

`C[C@@H](O)[C@@H]1NC(=O)[C@@H](NC(=O)CCOCCOCCNC(=O)CN2CCN(CC(=O)O)CCN(CC(N)=O)CCN(CC(=O)O)CC2)CSCc2cccc(c2)CSC[C@@H](C(N)=O)NC(=O)[C@H](Cc2c[nH]c3ccccc23)NC(=O)[C@H](Cc2c[nH]c3ccccc23)NC(=O)[C@H](CCC(N)=O)NC(=O)[C@H](CCC(=O)O)NC(=O)[C@H](Cc2c[nH]c3ccccc23)NC(=O)[C@@H]2CCCN2C1=O` [VMT-FAP-2-83, PSC-PEG2-[C(mXdB)TPWEQWWC]-NH2] ({X1-PEG2}-CTPWEQWWC-NH2; linker 1-9 via mXylylene): the Ki in series [1] is 0.54 nM.
The same measure, in the same setting: the result for `C[C@@H](O)[C@@H]1NC(=O)[C@@H]2CCCN2C(=O)[C@H](Cc2c[nH]c3ccccc23)NC(=O)[C@H](CCC(=O)O)NC(=O)[C@H](CCC(N)=O)NC(=O)[C@H](Cc2c[nH]c3ccccc23)NC(=O)[C@H](Cc2c[nH]c3ccccc23)NC(=O)[C@@H](NC(=O)CCOCCOCCNC(=O)CN2CCN(CC(=O)O)CCN(CC(N)=O)CCN(CC(=O)O)CC2)CSCc2ccccc2CSC[C@@H](C(=O)N[C@@H](CO)C(N)=O)NC1=O` [VMT-FAP-2-84, PSC-PEG2-[C(oXdB)WWQEWPTC]S-NH2] ({X1-PEG2}-CWWQEWPTCS-NH2; linker 1-9 via oXylylene) reads 115 nM.
`C[C@@H](O)[C@@H]1NC(=O)[C@@H](NC(=O)CCOCCOCCNC(=O)CN2CCN(CC(=O)O)CCN(CC(N)=O)CCN(CC(=O)O)CC2)CSCc2ccccc2CSC[C@@H](C(N)=O)NC(=O)[C@H](Cc2c[nH]c3ccccc23)NC(=O)[C@H](Cc2c[nH]c3ccccc23)NC(=O)[C@H](CCC(N)=O)NC(=O)[C@H](CCC(=O)O)NC(=O)[C@H](Cc2c[nH]c3ccccc23)NC(=O)[C@@H]2CCCN2C1=O` [[^212Pb]VMT-FAP-2-59, metal not drawn] ({X1-PEG2}-CTPWEQWWC-NH2; linker 1-9 via oXylylene): the Treatment-related toxicity result in series [2] is “No treatment-related toxicity was observed”.
Regarding “NODA-PEG2-[C(oXdB)TPWEQWWC]-NH2 [VMT-FAP-2-77]”, in series [1], the Ki amounted to 4.59 nM.
Still for that read-out and setting: the result for “PSC-Bn-NCS-PEG1-[C(oXdB)TPWEQWWC]-NH2 [VMT-FAP-2-72]” reads 0.79 nM.
Same read-out and setting: with “PSC-Bn-NCS-PEG2-[C(oXdB)TPWEQWWC]-NH2 [VMT-FAP-2-73]” the figure was 3.61 nM.
